Data reported in US20110165265A1, “TRAIL VARIANTS FOR TREATING CANCER” (FUNDACIÓ GENÒMICA (CRG), priority 2007, published 2011).
Entries after “also recorded” stand apart in the source; their conditions may differ.

T1: DcR2 (Homo sapiens, UniProt Q9UBN6)
T1 construct: soluble, recombinant DcR1-Ig (sDcR1) and DcR2-Ig (sDcR2); purchased R&D Systems
T1 sequence (Q9UBN6 56-211 limits assumed): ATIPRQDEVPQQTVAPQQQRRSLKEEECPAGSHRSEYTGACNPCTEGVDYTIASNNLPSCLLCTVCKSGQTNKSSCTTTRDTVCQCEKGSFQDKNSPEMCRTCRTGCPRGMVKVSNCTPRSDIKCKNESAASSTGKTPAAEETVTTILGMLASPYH

T2: DcR1 (Homo sapiens, UniProt O14798)
T2 construct: soluble, recombinant DcR1-Ig (sDcR1) and DcR2-Ig (sDcR2); purchased R&D Systems
T2 sequence (O14798 26-236 limits assumed): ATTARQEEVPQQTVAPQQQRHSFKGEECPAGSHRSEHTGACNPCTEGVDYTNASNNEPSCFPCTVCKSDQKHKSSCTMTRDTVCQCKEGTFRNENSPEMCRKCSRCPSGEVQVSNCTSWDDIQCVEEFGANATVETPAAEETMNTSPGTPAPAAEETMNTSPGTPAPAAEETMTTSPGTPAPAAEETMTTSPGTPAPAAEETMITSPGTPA


Assays:
Colo205 tumors = Colo205 tumors in athymic nude mice; format: in vivo; details: 1 and 5 mg/kg IP
DR5 [1] = molecular target: T3, DR5 (Homo sapiens, UniProt O14763); details: surface plasmon resonance; read-out: binding affinity Kd for DR5; cited from earlier work
T3 construct: Effect of soluble recombinant DR5-Ig (sDR5) on apoptosis induction

[2] = acknowledged value; cited from earlier work
A2780 cells [3] = test: Sensitivity of ovarian carcinoma cell line A2780 (Example 4); format: cell-based, human
Source text: The ovarian carcinoma cell line A2780 expresses very low levels of DR4, and high levels of the other three membrane-bound TRAIL receptors. Sensitivity of these cells to wild type TRAIL and the DR5-specific variant was compared initially as a single agent. The sensitivity pattern is illustrated in the Table 6, with + indicating minimally sensitive, ++ moderately sensitive and +++ very sensitive.

VACO-235 and VACO330 = test: Sensitivity of colon adenoma cell lines; format: cell-based, human; details: 96 hours
Protocol: The colon adenoma cell lines VACO-235 and VACO330 were treated with TRAIL or D269H/E195R for 96 hours. […] Sensitivity could be further enhanced using TRAIL or D269H/E195R in combination with the cdk inhibitor roscovitine.

DcR2 = molecular target: T1, DcR2; test: SPR receptor binding assay, immobilized DcR2-Ig; details: 0.1-250 nM ligand
Protocol: (§1) The response data (in response units) as a function of TRAIL concentration were fitted using a four parameter equation to give an apparent pre-steady state affinity constant.
(§2) Binding experiments were performed at 37° C. using a surface plasmon resonance-based biosensor (Biacore 3000, Biacore AB, Uppsala, Sweden) as previously described^10. In short, DcR1-Ig and DcR2-Ig receptor chimeras (R&D Systems) were captured at a 35 μl/min flow rate using a protein A (Sigma) modified CM5 sensor chip (Biacore). Receptor chimeras were captured at a level of ˜500-800 response units (RU). […] Binding of ligands to the receptors was monitored in real-time. Between injections the protein A sensor surface was regenerated using a 30s pulse of 0.1 M glycine 0.5 M NaCl pH 3. Due to the very slow dissociation of the TRAIL-receptor complex, only pre-steady state binding data could be obtained. In order to obtain data that represent proper high-affinity complex formation, the response at each concentration was recorded 30 sec after the end of the injection. The response data (in response units) as a function of TRAIL concentration were fitted using a four parameter equation to give an apparent pre-steady state affinity constant.
(§3) Affinity of the ligands was assessed by measuring receptor binding in a concentration range of 0.1-250 nM.

A2780 cells [4] = test: MTT cytotoxicity in A2780 (Example 6); format: cell-based; details: A2780 (FIG. 8E)
BJAB cells = test: Cytotoxicity in BJAB cells; format: cell-based
Colo205 cells = test: Annexin V apoptosis assay in Colo205; format: cell-based, human; details: Colo205, 3 h
Protocol: Colo205 cells express all four TRAIL receptors, and are sensitive to TRAIL-induced apoptosis, which is mediated predominantly via DRS in these cells^10. […] Induction of cell death was measured by Annexin V assay, wherein externalization of phosphatidyl serine (PS) on the plasma membrane of apoptotic cells was detected using Annexin V-FITC (IQ Corporation, Groningen, The Netherlands). Briefly, cells were trypsinized and were then collected by centrifugation at 400 g, washed in ice-cold calcium buffer (10 mM HEPES/NaOH, pH 7.4, 140 mM NaCl, 2.5 mM CaCl2) and incubated with Annexin V-FITC for 15 min in the dark prior to acquisition on a FACSCalibur flow cytometer (Becton Dickinson).

DR4 = molecular target: T4, DR4 (Homo sapiens, UniProt O00220); test: SPR binding to immobilized DR4-Ig; details: pre-steady state SPR
T4 construct: the more commonly used dimeric TRAIL-receptor-IgG Fc chimeric constructs
T4 sequence (O00220 24-239 limits assumed): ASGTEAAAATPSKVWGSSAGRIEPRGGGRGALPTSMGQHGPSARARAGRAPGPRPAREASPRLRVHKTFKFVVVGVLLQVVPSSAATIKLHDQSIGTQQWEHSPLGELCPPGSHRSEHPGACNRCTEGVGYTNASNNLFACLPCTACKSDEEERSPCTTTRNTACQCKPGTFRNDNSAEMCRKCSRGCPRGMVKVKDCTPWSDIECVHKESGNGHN
Source text: In other experiments dissociation was continued for periods of up to 2,000 sec, with similar results. As a consequence it is essentially impossible to obtain a dissociation rate constant and thus to calculate the affinity from the association and dissociation rate constants. We therefore chose to use the pre-steady state approach to analyse the data^10. […] With these two changes this variant has become an TRAIL variant that binds to DR5 with high selectivity and affinity.

DcR1 = molecular target: T2, DcR1; test: SPR receptor binding assay, immobilized DcR1-Ig; details: 0.1-250 nM ligand
Protocol: as §1, §2, §3

DR5 [5] = molecular target: T3, DR5; test: SPR binding to immobilized DR5-Ig

Molecule | anti-tumor effect, single therapy (Colo205 tumors) | Kd (DR5 [1]) | half life [2] | efficacy in combination with Cisplatin (A2780 cells [3]) | sensitivity compared to wild type TRAIL, single agent (A2780 cells [3]) | sensitivity of adenoma cell lines (VACO-235 and VACO330) | binding toward DcR2 compared to wtTRAIL (DcR2) | cytotoxic activity compared with wild-type TRAIL (A2780 cells [4]) | cell death induction (BJAB cells; BJABDR5 DEF cells) | cytotoxic potential (BJAB cells; BJABDR5 DEF+DR5 cells) | cell death induction (BJAB cells; BJABwt cells) | increase in apoptosis / cytotoxic potential compared to wtTRAIL (based on IC50) (Colo205 cells) | increase in apoptosis / cytotoxic potential compared to wtTRAIL (based on IC50) (Colo205 cells; listed as D269H/E195R) | affinity for DR4-Ig compared to wtTRAIL (DR4) | binding towards DcR1, reduction compared to wtTRAIL (DcR1) | increase in association rate constant (kon) for binding to DR5 compared to wtTRAIL (DR5 [5]) | affinity for DR5-Ig compared to wtTRAIL (DR5 [5]; pre-steady state SPR)
wtTRAIL: wild-type soluble recombinant human TRAIL, amino acids 114-281 (SEQ ID NO: 3) (protein, listed as Homo sapiens, TRAIL 114-281) MVRRGRVAAHTGTRGRSNTSSNSKNKAGRKNSWSSRSGHSSNHRNGVHKGYYYSTYRKNTKNDKMVYYKYTSYDMKSARNSCWSKDAYGYSYGGKNDRVSVTNHDMDHASGAVG | neither of the two concentrations of wtTRAIL give an anti-humor effect; also recorded: do not give an anti-tumor effect | 7.2 nM | approximately 30 minutes | – | – | – | – | – | – | – | – | – | – | – | – | – | –
D269HE195R: rhTRAIL (114-281) carrying mutations D269H and E195R; DR5-selective TRAIL variant (protein) MVRERGPQRVAAHITGTRGRSNTLSSPNSKNEKALGRKINSWESSRSGHSFLSNLHLRNGELVIHEKGFYYIYSQTYFRFQERIKENTKNDKQMVQYIYKYTSYPDPILLMKSARNSCWSKDAEYGLYSIYQGGIFELKENDRIFVSVTNEHLIDMHHEASFFGAFLVG | – | – | – | higher efficacy than wtTRAIL | increased sensitivity | more sensitive to D269H/E195R | reduced | significantly increased | unable to induce significant cell death | restored | able to induce cell death | 2.7-4.2 fold | 3.3-4.2 fold | almost abolished | approximately 20 fold | less than 5 fold | increased several fold
